In patent US8088892B2, “Inhibitors of proteins from the Rho-GEF family” (Centre National de la Recherche Scientifique (C.N.R.S.), priority 2002, dated 2012):

B1: TRIAPα: aptamer of 154 amino acids: variable region of 42 amino acids inserted into the thioredoxin protein; tested as GST fusion (protein)
chain: MSDKIIHLTDDSFDTDVLKADGAILVDFWAEWCGPAREGADGAICGYNLATLVMLGPSERVFCPLCEPCSSDIYELMGPCKMIAPILDEIADEYQGKLTVAKLNIDQNPGTAPKYGIRGIPTLLLFKNGEVASATKVGALSKGQLKEFLDANLA

Columns and labels:
Full length Trio (RhoA) = biological target: T1, Full length Trio (RhoA) (Homo sapiens, UniProt O75962); experiment: Yeast Exchange Assay (YEA), full length Trio on RhoA; assay type: cell-based; set-up: key: “+ +” represents a slight activation of the reporter gene; “+ + + +” represents a strong activation of the reporter gene; “−” represents no activation of the reporter gene; conditions: +TRIPα (−TRIPα: −)
T1 construct: Full length Trio was introduced into the YEA; expressed in transfected cells; host or cells: yeast strain TAT7
Excerpt: The wild type GTPase is fused to the LexA DNA binding domain (Matchmaker GAL4 two-hybrid, Clontech Laboratories, Inc., USA) and the effector to the […] (Matchmaker GAL4 two-hybrid, Clontech, Inc., USA). Under these conditions, no binding occurs in the TAT7 strain (De Toledo et al., 2000). Upon addition of a third plasmid expressing the GEF, the GTPase gets activated and binds to its effector, thus leading to the transactivation of the reporter gene LacZ.
Full length Trio was introduced into the YEA and tested for its ability to activate RhoA and RhoG respectively, in the presence or absence of TRIPα. The table below summarizes the effect of TRIPα on Trio as schematized in this Figure.
In order to better characterise the effect of TRIAPα on the Trio full length RhoGEF activity, the yeast exchange assay (YEA) was used, which is a quick and quantitative test derived from the classical two-hybrid system allowing to measure Rho-GEF activity and specificity (De Toledo et al., 2000). This functional assay is based on the fact that the GTPase binds to its effector only if it is activated by a RhoGEF. Briefly, yeasts are transformed with the GTPase fused to the LexA binding domain (LexA), and its effector to the GAL-4 Activating Domain (GAD), and with the adequate Rho-GEF partner in the yeast strain TAT7 (FIG. 7). […]

p63RhoGEF = biological target: T2, p63RhoGEF (Homo sapiens, UniProt Q86VW2); experiment: In vitro GEF assay on RhoA; assay type: biochemical; set-up: key to in vitro GEF assay (inhibition): +++^2 and +^2 represent respectively a full and a partial (see FIG. 3) inhibitory effect; +++^2 and +^2 represent respectively a full and a partial (see FIG. 3) inhibitory effect; −−^2 represents a lack of inhibitory effect; conditions: for Effect on p63RhoGEF exchange activity on RhoA: 20-fold molar excess, p63RhoGEF 0.4 μM
T2 construct: (a.a. 149-374, 71.5% identity with TrioGEFD2, 0.4 μM); made in house
T2 sequence (Q86VW2 149-374): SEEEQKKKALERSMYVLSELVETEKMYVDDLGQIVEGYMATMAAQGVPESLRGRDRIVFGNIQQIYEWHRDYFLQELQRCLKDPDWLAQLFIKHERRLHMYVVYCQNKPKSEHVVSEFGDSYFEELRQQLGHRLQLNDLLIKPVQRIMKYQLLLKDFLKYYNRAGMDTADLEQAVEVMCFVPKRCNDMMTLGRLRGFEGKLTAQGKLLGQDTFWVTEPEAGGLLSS
Protocol: To test the specificity of TRIAPα inhibition in vitro, exchange experiments were performed either on RhoA with different RhoA-specific GEFs: Trio GEFD2 (0.4 μM), Kalirin GEFD2 (KalGEFD2, 1.7 μM), p63RhoGEF (Souchet et al., 2002) (0.4 μM) and Lbc (amino acids 172-598; Zheng et al., 1995) (0.4 μM), or on RhoG, with the RhoG-specific GEF domain of Trio (TrioGEFD1, 0.1 μM). Exchange assays were performed with the recombinant GEFs as described in FIG. 2A. Different concentrations of RhoGEFs were used to yield a similar nucleotide exchange efficiency. For each exchange factor, three independent experiments were done in absence (black bar) or in the presence (grey bar) of a 20-fold molar excess of TRIAPα.
An in vitro guanine nucleotide exchange (GEF) assay was used to test whether the TrioGEFD2-binding aptamers could inhibit the catalytic activity of TrioGEFD2 towards RhoA. For this purpose, the aptamers TRIAPα, TRIAPβ and TRIAPγ (including the Trx gene) were excised from pEG202 as EcoRI/NotI fragments and cloned into pGEX4T1 EcoRI/NotI. The aptamers were then expressed and purified from bacteria as GST fusion proteins, using standard procedures (Smith and Johnson, 1988). GTPase-GST fusion proteins were prepared, loaded with [^3H]GDP and the guanine nucleotide release assays were performed as described (Debant et al., 1996), using recombinant GST-TrioGEFD2 (a.a. 1848-2298), TrioDH2 (a.a. 1848-2096). For each point, 0.3 μM GTPase was mixed with or without 0.4 μM GEF in presence of non-labeled GTP, and the reaction mix was filtered after 0 min and 15 mm reaction at 25° C. The catalytic activity of TrioGEFD2 was thus measured by the decrease of the GTPase-associated radioactivity. The results are expressed as the ratio “exchange after 15 min over exchange after 0 min” (% bound [^3H]GDP-RhoA). To measure the effect of the aptamers on the exchange activity, a 20-fold molar excess of GST-TRIAPs was pre-incubated with GEFD2 (or GEFD1) for 30 min on ice before the exchange assay was carried out. For each experiment, data were obtained in triplicate.
The effect of GST-TRIAPα on other Rho-GEFs that display in vitro exchange activity on RhoA was next tested to investigate whether TRIAPα inhibition was specific of TrioGEFD2. The exchange activities of the RhoGEF Lbc (a.a. 1-424, FIG. 3)(Zheng et al., 1995) and Dbl (a.a. 495-826, data not shown) were not affected by GST-TRIAPα. The effect of GST-TRIAPα on the catalytic activity of RhoGEFs that display a high sequence similarity with TrioGEFD2 was then tested: the recently identified RhoA-specific p63RhoGEF (Souchet et al., 2002) (a.a. 149-374, 71.5% identity with TrioGEFD2, 0.4 μM) and the second Rho-GEF domain of the Trio family member Kalirin (KalGEFD2, a.a. 1850-2190, 65% identity with TrioGEFD2, 1.7 μM). Different concentrations of RhoGEFs were used to yield similar nucleotide exchange […]. For each exchange factor, three independent experiments were done in absence or in the presence of a 20-fold molar excess of GST-TRIAPα. […] Thus, the in vitro inhibitory activity of TRIAPα was selective for TrioGEFD2 (see table I for summary of the tested RhoGEFs).

Molecule	activation of the reporter gene by full length Trio, RhoA (Full length Trio (RhoA))	Effect on p63RhoGEF exchange activity on RhoA (p63RhoGEF)	Effect on p63RhoGEF exchange activity on RhoA (p63RhoGEF; listed as GST-TRIAPα)	in vitro GEF assay (inhibition) (p63RhoGEF; RhoGEF p63RhoGEF)
AREGADGAICGYNLATLVMLGPSERVFCPLCEPCSSDIYELM [TRIPα, 42-amino acid peptide corresponding to the variable region of TRIAPα]	−			
B1		has no effect	had no effect	−−^2
